Assay results published in patent publication US20230212267A1 (WISTAR INSTITUTE OF ANATOMY AND BIOLOGY, published 2023).

What was measured:
[1] = target: SARS-CoV-2 Spike protein on pseudovirus (wild type) (SARS-CoV-2, UniProt P0DTC2 14-1273); assay: cell-based or functional assay
[2] = target: recombinant SARS-CoV-2-RBD (Sino Biological) (SARS-CoV-2, UniProt P0DTC2 319-541)
[3] = target: T1, recombinant SARS-CoV-2 receptor binding domain (RBD) (Examples 1 and 2) (SARS-CoV-2, UniProt P0DTC2 319-541); assay: ELISA, axis RBD Binding (OD450), D14 sera of mice given the S309 DMAb
T1 construct: also called SARS-CoV-2 RBD

[4] = target: T2, recombinant SARS-CoV-2 S1 (Examples 1 and 2) (SARS-CoV-2, UniProt P0DTC2 16-685); assay: ELISA with sera of DMAb-treated mice
T2 construct: domain: Subunit 1 (S1); also called Subunit 1 (S1) domain; S1 domains

[5] = target: T1, recombinant SARS-CoV-2 receptor binding …; assay: ELISA, axis RBD Binding (OD450), serial dilutions of in vitro expressed DMAb

B1: WCoVA7 (antibody, V domains shown)
VH: EVKLLESGGGLVQPGGSLKLSCAASGFDFSRYWMSWVRQAPGKGLEWIGEINPDSSTINYTPSLKDKFIISRDNAKNTLYLQMSKVRSEDTALYYCARIYYGSPGAMDYWGQGTSVTVSS
VL: SIVMTQTPKFLLVSAGDRVTITCKASQSVSNDVAWYQQKPGQSPKLLIYYASNRYTGVPDRFTGSGYGTDFTFTISTVQAEDLAVYFCQQDYFSPYTFGGGTKLEIK
With B1 the “IC50, pseudovirus neutralization (wild type virus)” value [1] was 2.6 ng/mL, the Kd [2] was 0.28 nM and the koff [2] was 9.3e-05 s⁻¹. The kon [2] was 330000 M⁻¹ s⁻¹ and the t1/2 [2] was 2.07 h.

B2: WCoVA9 (antibody, V domains shown)
VH: EVQLQQSGAELVKPGASVKLSCTASGFNIKDTYMHWVKQRPEQGLEWIGRIDPANGNTKYDPKFQAKATITANTSSNTAYLHLSSLTSEDTAVYYCAPYYDYVGAMDYWGQGTSVTVSS
VL: DIQMTQSPASQSASLGESVTITCLASQTIGTWLAWYQQKPGKSPQLLIYAATSLADGVPSRFSGSGSGTKFSFKISSLQAEDFVSYYCQQLYNTPLTFGGGTKLEIK
In the case of B2, the “IC50, pseudovirus neutralization (wild type virus)” value [1] is reported as 4.9 ng/mL, the Kd [2] is reported as 0.042 nM and the koff [2] is reported as 1.9e-05 s⁻¹. For the same binder, the kon [2] was 470000 M⁻¹ s⁻¹ and the t1/2 [2] was 10.1 h.

B3: S309 SARS-CoV-2 DMAb (antibody, V domains shown)
VH: QVQLVQSGAEVKKPGASVKVSCKASGYTFTSYGISWVRQAPGQGLEWMGWISAYNGNTNYAQKLQGRVTMTTDTSTSTAYMELRSLRSDDTAVYYCARDYTRGAWFGESLIGGFDNWGQGTLVTVSA
VL: EIVLTQSPGTLSLSPGERATLSCRASQSVSSSYLAWYQQKPGQAPRLLIYGASSRATGIPDRFSGSGSGTDFTLTISRLEPEDFAVYYCQQHDTSLTFGQGTKVEIKR
notes: also called S309 DMAb
B3: binds [3].

B4: 2381 DMAb (antibody)
heavy: not shown
light: EVVLTQSPGTLSLSPGERATLSCRASQSVSSSYLAWYQQKPGQAPRLLIYGASSRATGIPDRFSGSGSGTDFTLTISRLEPEDFAVYHCQHFGSSSQWTFGQGTKVEIKRTVAAPSVFIFPPSDEQLKSGTASVVCLLNNFYPREAKVQWKVDNALQSGNSQESVTEQDSKDSTYSLSNTLTLSKADYEKHKVYACEVTHQGLSSPVTKSFNRGEC
B4: binds [4].

B5: 2381 (G) (antibody)
heavy: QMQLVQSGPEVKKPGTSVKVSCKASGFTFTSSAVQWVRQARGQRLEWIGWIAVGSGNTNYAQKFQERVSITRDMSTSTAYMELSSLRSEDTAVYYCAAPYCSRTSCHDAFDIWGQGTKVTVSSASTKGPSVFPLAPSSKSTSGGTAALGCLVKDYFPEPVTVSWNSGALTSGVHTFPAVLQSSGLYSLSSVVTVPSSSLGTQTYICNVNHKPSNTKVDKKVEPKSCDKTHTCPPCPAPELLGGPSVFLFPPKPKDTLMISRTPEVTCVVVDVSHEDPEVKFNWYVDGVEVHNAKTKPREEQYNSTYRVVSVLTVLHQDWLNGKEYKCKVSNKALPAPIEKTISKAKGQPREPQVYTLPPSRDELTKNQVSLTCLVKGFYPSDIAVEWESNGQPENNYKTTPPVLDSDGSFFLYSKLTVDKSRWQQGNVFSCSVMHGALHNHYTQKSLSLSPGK
light: B4 light
B5: binds [5].

B6: 2381 (GK) (antibody)
heavy: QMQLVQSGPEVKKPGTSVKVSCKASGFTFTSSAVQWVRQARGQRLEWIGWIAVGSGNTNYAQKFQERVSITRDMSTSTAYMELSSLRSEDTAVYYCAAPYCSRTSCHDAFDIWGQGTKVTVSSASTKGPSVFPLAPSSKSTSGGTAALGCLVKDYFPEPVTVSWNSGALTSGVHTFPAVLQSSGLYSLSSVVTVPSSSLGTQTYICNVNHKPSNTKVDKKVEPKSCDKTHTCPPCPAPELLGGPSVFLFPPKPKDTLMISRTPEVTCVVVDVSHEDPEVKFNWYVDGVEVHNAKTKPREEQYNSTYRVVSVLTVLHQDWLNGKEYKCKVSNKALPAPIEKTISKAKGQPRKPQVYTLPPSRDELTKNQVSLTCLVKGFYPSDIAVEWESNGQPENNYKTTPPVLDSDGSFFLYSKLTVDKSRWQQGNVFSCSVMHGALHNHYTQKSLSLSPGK
light: B4 light
B6: binds [5].

B7: 2196 DMAb (antibody, V domains shown)
VH: QMQLVQSGPEVKKPGTSVKVSCKASGFTFTSSAVQWVRQARGQRLEWIGWIAVGSGNTNYAQKFQERVSITRDMSTSTAYMELSSLRSEDTAVYYCAAPYCSSISCNDGFDIWGQGTKVTVSS
VL: EVVLTQSPGTLSLSPGERATLSCRASQSVSSSYLAWYQQKPGQAPRLLIYGASSRATGIPDRFSGSGSGTDFTLTISRLEPEDFAVYHCQHYGSSSQWTFGQGTKVEIKR
notes: also called 2196 WT DMAb
B7: binds [4]; binds [5].
